In PMC4156074 (2014):

Molecular target: Full-length human plasma kallikrein, activated form (human, UniProt P03952 20-390; P03952 391-638)
Assay: apparent Ki

Full-length human plasma kallikrein, activated form, sequence (P03952 20-390, chain 1 of 2): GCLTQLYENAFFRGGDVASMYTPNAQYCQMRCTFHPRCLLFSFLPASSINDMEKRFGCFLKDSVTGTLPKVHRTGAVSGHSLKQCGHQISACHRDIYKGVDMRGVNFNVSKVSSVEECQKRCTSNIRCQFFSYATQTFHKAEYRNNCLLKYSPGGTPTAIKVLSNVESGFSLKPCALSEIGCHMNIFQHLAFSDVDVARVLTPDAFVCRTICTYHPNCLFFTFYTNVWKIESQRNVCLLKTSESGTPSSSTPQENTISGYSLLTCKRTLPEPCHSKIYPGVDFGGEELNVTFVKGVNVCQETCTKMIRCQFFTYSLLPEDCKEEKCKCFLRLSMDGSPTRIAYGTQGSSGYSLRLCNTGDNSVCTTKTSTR
Full-length human plasma kallikrein, activated form, sequence (P03952 391-638, chain 2 of 2): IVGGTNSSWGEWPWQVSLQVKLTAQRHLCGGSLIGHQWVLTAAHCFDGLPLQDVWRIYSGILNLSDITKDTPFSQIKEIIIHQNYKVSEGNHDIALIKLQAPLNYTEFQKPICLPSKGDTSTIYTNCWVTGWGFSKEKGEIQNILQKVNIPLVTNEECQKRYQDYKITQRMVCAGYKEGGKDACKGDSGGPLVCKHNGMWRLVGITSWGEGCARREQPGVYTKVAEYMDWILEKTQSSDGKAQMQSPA

B1: Fab M0162-A04 (lead Fab, parent of the affinity maturation) (Fab, V domains shown)
VH: EVQLLESGGGLVQPGGSLRLSCAASGFTFSHYIMMWVRQAPGKGLEWVSGIYSSGGITVYADSVKGRFTISRDNSKNTLYLQMNSLRAEDTAVYYCAYRRTGIPRRDAFDIWGQGTMVTVSS
VL: DIQMTQSPSTLSASVGDRVTITCRASQSISSWLAWYQQKPGKAPNLLIYKASTLESGVPSRFSGSGSGTEFTLTISSLQPDDFATYYCQQYNTYWTFGQGTKVEIK
Ki: 5.39 nM
